Source: the supplement of paper PMC9170038

System: MS2 coat protein
Experiment: apparent KD of MS2 coat protein; designed switch direction (-1 OFF switch, 1 ON switch): 1; higher = weaker reporter binding
Summary of the method: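 Apparent KD, taken as the median over clusters for each design, was obtained by curve-fitting normalised cluster fluorescence. Designed RNA switches had been transcribed on Illumina chips by stalled E. coli RNA polymerase and titrated with SNAP-549-labelled MS2 coat protein, doubling from 0.7 or 1.5 nM to 3 µM.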

[1] = input ligand: microRNA oligo, concentration not stated

| Sequence | apparent KD of MS2 coat protein (input ligand: FMN 200 uM) [nM] | apparent KD of MS2 coat protein [1] [nM] | apparent KD of MS2 coat protein (input ligand: none) [nM] | apparent KD of MS2 coat protein (Eterna round: R95, input ligand: FMN 200 uM) [nM] | apparent KD of MS2 coat protein (Eterna round: R95, input ligand: microRNA oligo, concentration not stated) [nM] | apparent KD of MS2 coat protein (Eterna round: R95, input ligand: none) [nM] |
| --- | --- | --- | --- | --- | --- | --- |
| GCUCGAUGAAUGUCCUACAUGAGGAUCACCCAUGUUCGUGGGCAGGAUAUUUACAUGCAGAGUGUAGAGAAGGGCCCAUCGAGC [SameState NG3 #63] (Eterna round: R96, puzzle: Same State NG 3) | 43.4 | 63.7 | 85.1 |  |  |  |
| GAGCCAGUCCGAGGAUAUUCAUAAAUUAAAUACAUGAGGAUCACCCAUGUAGGCAGAGAGCCUUGGGAGAAGGCGGACUGGCUC [Xeonanisa>>3] (Eterna round: R96, puzzle: Same State NG 2) | 10.9 | 25.5 | 37.3 |  |  |  |
| CAUCGUUUGAUAGGAUAUCGCUAUACAUGAGGAUCACCCAUGUUUACCACGCUGGUUUUUCAUACCGAGAAGGAUUCUGAUGAC [salish99_SSNG02_r04_014] (Eterna round: R96, puzzle: Same State NG 2) | 27.3 | 27.7 | 30.2 |  |  |  |
| GCUAGAAUUAAAGCCAACAUGAGGAUCACCCAUGUAUGUUGGUAGGAUAUCGUUUGCAAAGCAAACGAGAAGGGCUAAUCUAGC [Mat - Same State NG 3 - JL Mod - D64] (Eterna round: R96, puzzle: Same State NG 3) | 87 | 48.2 | 80.2 |  |  |  |
| AUGAAGAAUUAAGGAUAUUGAUUACAUAUGUUUAACAUGAGGAUCACCCAUGUGGGUUGCGGUAUCGAGAAGGUAAAUUAAUAG [Mat - same State NG 2 - JL mod - D84] (Eterna round: R96, puzzle: Same State NG 2) | 187 | 129 | 196 |  |  |  |
| AAAGAAAACGCAGGAUAUCCCGGAAAAGAUCCGGGAGAAGGGUGACCGGUACAUGAGGAUCACCCAUGUAGAGCAAAGGCUCAA [Ceonbeti] (Eterna round: R96, puzzle: Same State NG 1) | 232 | 133 | 128 |  |  |  |
| UGACAAGUGGUAGGAUAUCCAUGACAUGAGGAUCACCCAUGUUCUUUUGGUGUCCGUCACGGACGGGAGAAGGACCAACAUGAG [Same State NG2 S3] (Eterna round: R96, puzzle: Same State NG 2) | 10.1 | 9.45 | 12.9 |  |  |  |
| UGUUGUAUUACAGGAUAUCUAUGAUUUUAAUUUAGAGAAGGGUAUUCACAUGAGGAUCACCCAUGUAUAUACGAGGAAGUUGUG [JMF's solution 63] (Eterna round: R96, puzzle: Same State NG 1) |  | 40.2 |  |  |  |  |
| AAGGUGCAGGUACAGGAUAUGUUGCUCGUAACAUGAGGAUCACCCAUGUACCUAUGAGAUUAAAUGCAGAAGGGUGCACACCAAA [Mat - Same State 2 - Mod of UCT - D91] (Eterna round: R96, puzzle: Same State 2) | 70.6 | 168 | 731 |  |  |  |
| AAACAUGAGCGAGGAUAUGCAGAGGAUCACCCUGUAGAAGGCGCAUGUAAAACAACAUGAGGAUCACCCAUGUCAUGUACAUGA (Eterna round: R96, puzzle: Same State NG 1) | 19.4 | 15.3 | 20.2 |  |  |  |
| AUAAGUUCGAUGCUCGUCUCUCCGUACAAACAUGAGGAUCACCCAUGUGGUCAGGAAGUAGCCCGACCAGUAUGGCC [Leedqu] (puzzle: Sensor for hsa-mir-208a) |  |  |  | 29 | 24.6 | 34 |
| UGCUAGUGGGUAGGAUAUUUAGGAUAUGCGGAAGACUAAGUCUGUAGGUCACCUAACGCAGAAGGAGAGAAGGACCCUUCAGCU [pwkr ssNG2 2FMN + F9.29] (Eterna round: R96, puzzle: Same State NG 2) | 143 | 16.8 | 12.8 |  |  |  |
